Source: patent US20140178405A1

Tests used:
Test in all cases: cell-based or functional assay
[1] = molecular target: native VP6 of equine rotavirus H2 (Sb no I, no II; P[12]G3), in the virus (equine rotavirus strain H2)
[2] = molecular target: native VP6 of bovine rotavirus IND (SbI; P[5]G6), in the virus (bovine rotavirus strain IND)
[3] = molecular target: native VP6 of human rotavirus Wa (SbII; P[8]G1), in the virus (human rotavirus strain Wa)
[4] = molecular target: native VP6 of bovine rotavirus C486 (SbI; P[1]G6), in the virus (bovine rotavirus strain C486)

Chain of native VP6 of equine rotavirus H2 (Sb no I, no II; P[12]G3), in the virus (equine rotavirus strain H2) (P16488 whole entry): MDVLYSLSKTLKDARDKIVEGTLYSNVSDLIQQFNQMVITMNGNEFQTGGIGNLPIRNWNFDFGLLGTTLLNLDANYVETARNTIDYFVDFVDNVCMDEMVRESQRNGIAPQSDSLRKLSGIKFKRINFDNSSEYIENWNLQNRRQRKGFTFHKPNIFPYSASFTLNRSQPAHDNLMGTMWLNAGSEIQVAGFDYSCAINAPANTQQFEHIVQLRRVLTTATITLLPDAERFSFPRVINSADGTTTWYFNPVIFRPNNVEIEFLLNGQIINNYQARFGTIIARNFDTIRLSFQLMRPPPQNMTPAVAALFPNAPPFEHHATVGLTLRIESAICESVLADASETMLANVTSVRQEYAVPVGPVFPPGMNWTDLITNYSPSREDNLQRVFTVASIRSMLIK
Chain of native VP6 of human rotavirus Wa (SbII; P[8]G1), in the virus (human rotavirus strain Wa) (P03530 whole entry): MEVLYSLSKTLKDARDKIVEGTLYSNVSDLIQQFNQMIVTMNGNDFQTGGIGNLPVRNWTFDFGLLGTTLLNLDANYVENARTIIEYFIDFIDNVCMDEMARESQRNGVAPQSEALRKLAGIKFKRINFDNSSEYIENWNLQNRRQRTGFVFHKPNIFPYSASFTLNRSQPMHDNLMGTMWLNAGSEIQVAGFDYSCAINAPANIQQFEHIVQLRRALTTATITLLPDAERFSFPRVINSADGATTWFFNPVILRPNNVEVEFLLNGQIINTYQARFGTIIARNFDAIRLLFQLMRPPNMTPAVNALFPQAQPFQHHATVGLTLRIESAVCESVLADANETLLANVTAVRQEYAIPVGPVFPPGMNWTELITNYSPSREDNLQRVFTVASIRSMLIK

## non-related VHH, directed against a cellular protein
[1]
  VN antibody titre (inverse of the highest VHH dilution that reduces >80% of the FFU per 100 FFU), VHH at 0.4 mg/ml (titre (reciprocal dilution)): < 8
[2]
  VN antibody titre (inverse of the highest VHH dilution that reduces >80% of the FFU per 100 FFU), VHH at 0.4 mg/ml (titre (reciprocal dilution)): < 8
[3]
  VN antibody titre (inverse of the highest VHH dilution that reduces >80% of the FFU per 100 FFU), VHH at 0.4 mg/ml (titre (reciprocal dilution)): < 8
[4]
  VN antibody titre (inverse of the highest VHH dilution that reduces >80% of the FFU per 100 FFU), VHH at 0.4 mg/ml (titre (reciprocal dilution)): < 8

B1: VHH 3A6 anti VP6 (VHH)
VHH: EVQLQASGGGFVQPGGSLSLSCAVSGRSFGDDVMGWFRQAPGKEREFVSAIRFRSNSPFYGDPGKGRFTIARDSAKDTVYLHMYRLRPDDTAVYYCAVGDGALVNRASDYTYWGQGTQVTVSS
[1]
  VN antibody titre (inverse of the highest VHH dilution that reduces >80% of the FFU per 100 FFU), VHH at 2 mg/ml (titre (reciprocal dilution)): 128
[2]
  VN antibody titre (inverse of the highest VHH dilution that reduces >80% of the FFU per 100 FFU), VHH at 2 mg/ml (titre (reciprocal dilution)): 1024
[3]
  VN antibody titre (inverse of the highest VHH dilution that reduces >80% of the FFU per 100 FFU), VHH at 2 mg/ml (titre (reciprocal dilution)): 2048
[4]
  VN antibody titre (inverse of the highest VHH dilution that reduces >80% of the FFU per 100 FFU), VHH at 2 mg/ml (titre (reciprocal dilution)): 1024

B2: VHH 2KA4 anti VP6 (VHH)
VHH: DVQLQASGGGLVQAGDSLRLSCVQSGPGRYGVGWFRQAPGKEREFVAAVSGSGGSKYYGDSVQGRFTISKDDAKNTVYLQMNNLKPEDTAVYYCAVRRTYSGSNLWHRSDEYDSWGPGTQVTVSS
[1]
  VN antibody titre (inverse of the highest VHH dilution that reduces >80% of the FFU per 100 FFU), VHH at 2 mg/ml (titre (reciprocal dilution)): < 8
[2]
  VN antibody titre (inverse of the highest VHH dilution that reduces >80% of the FFU per 100 FFU), VHH at 2 mg/ml (titre (reciprocal dilution)): < 8
[3]
  VN antibody titre (inverse of the highest VHH dilution that reduces >80% of the FFU per 100 FFU), VHH at 2 mg/ml (titre (reciprocal dilution)): < 8
[4]
  VN antibody titre (inverse of the highest VHH dilution that reduces >80% of the FFU per 100 FFU), VHH at 2 mg/ml (titre (reciprocal dilution)): < 8

B3: VHH 3B2 anti VP6 (VHH)
VHH: DVQLQASGGGLAQAGDSLTLSCAASGRTFSGYVVGWFRQAPGAEREFVGAIRWSEDSTWYGDSMKGRILISRNNIKNTVNLQMFNLKPEDTAVYVCAAGAGDIVTTETSYNYWGRGTQVTVSS
[1]
  VN antibody titre (inverse of the highest VHH dilution that reduces >80% of the FFU per 100 FFU), VHH at 2 mg/ml (titre (reciprocal dilution)): 512
[2]
  VN antibody titre (inverse of the highest VHH dilution that reduces >80% of the FFU per 100 FFU), VHH at 2 mg/ml (titre (reciprocal dilution)): 1024
[3]
  VN antibody titre (inverse of the highest VHH dilution that reduces >80% of the FFU per 100 FFU), VHH at 2 mg/ml (titre (reciprocal dilution)): 8192
[4]
  VN antibody titre (inverse of the highest VHH dilution that reduces >80% of the FFU per 100 FFU), VHH at 2 mg/ml (titre (reciprocal dilution)): 1024

B4: VHH 2KD1 anti VP6 (VHH)
VHH: DVQLQASGGGFVQPGDSLSLSCAASGGTFSSYSIGWFRQGPGKEREFVATISSSDSPWYGEPAKGRFTVARVNAKNTAYLHLNRLKPEDTATYYCAAGSVQHMANENEYVYWGQGTQVTVSS
[1]
  VN antibody titre (inverse of the highest VHH dilution that reduces >80% of the FFU per 100 FFU), VHH at 2 mg/ml (titre (reciprocal dilution)): 512
[2]
  VN antibody titre (inverse of the highest VHH dilution that reduces >80% of the FFU per 100 FFU), VHH at 2 mg/ml (titre (reciprocal dilution)): 2048
[3]
  VN antibody titre (inverse of the highest VHH dilution that reduces >80% of the FFU per 100 FFU), VHH at 2 mg/ml (titre (reciprocal dilution)): 8192
[4]
  VN antibody titre (inverse of the highest VHH dilution that reduces >80% of the FFU per 100 FFU), VHH at 2 mg/ml (titre (reciprocal dilution)): 2048

B5: bivalent VHH biv2KA4 (bispecific antibody)
chain: MADVQLQASGGGLVQAGDSLRLSCVQSGPGRYGVGWFRQAPGKEREFVAAVSGSGGSKYYGDSVQGRFTISKDDAKNTVYLQMNNLKPEDTAVYYCAVRRTYSGSNLWHRSDEYDSWGPGTQVTVSSSGPSTPPRPSPSTPPSDVQLQASGGGLVQAGDSLRLSCVQSGPGRYGVGWFRQAPGKEREFVAAVSGSGGSKYYGDSVQGRFTISKDDAKNTVYLQMNNLKPEDTAVYYCAVRRTYSGSNLWHRSDEYDSWGPGTQVTVSSGRHHHHHH
[1]
  VN antibody titre (inverse of the highest VHH dilution that reduces >80% of the FFU per 100 FFU), VHH at 0.5 mg/ml (titre (reciprocal dilution)): < 8
[2]
  VN antibody titre (inverse of the highest VHH dilution that reduces >80% of the FFU per 100 FFU), VHH at 0.5 mg/ml (titre (reciprocal dilution)): < 8
[3]
  VN antibody titre (inverse of the highest VHH dilution that reduces >80% of the FFU per 100 FFU), VHH at 0.5 mg/ml (titre (reciprocal dilution)): 32
[4]
  VN antibody titre (inverse of the highest VHH dilution that reduces >80% of the FFU per 100 FFU), VHH at 0.5 mg/ml (titre (reciprocal dilution)): < 8
